In one assay the target is IgG1 Fc^E382R (human). Put plainly: crystal structure; EndoS^D233A/E235L and IgG1 Fc^E382R combined 1:1, complex purified by SEC, exchanged into 50 mM HEPES, 150 mM KCl pH 7.5; crystals in Morpheus condition (0.09 M halogens, buffer system 2 pH 7.5, 37.5 % precipitant mix 4); space group P2_(1)2_(1)2_(1), 3.45 Å.
A further assay addresses IgG1 Fc^E382A (human). Briefly: crystal structure; IdeS^C94A and IgG1 Fc^E382A combined 1:1, complex purified by SEC, exchanged into 50 mM HEPES, 150 mM KCl pH 7.5; crystals in Morpheus condition (0.12 M monosaccharides mix, buffer system 3 pH 8.5, 30 % precipitant mix 1); space group C121, twinned data, 2.34 Å. For orientation: In gel filtration, larger molecules generally elute earlier.

Take “EndoS^D233A/E235L (truncated EndoS, residues 98-995) (from UniProt Q99Y92 98-995) (enzyme)”: in the assay with IgG1 Fc^E382R (human), the stoichiometry N (EndoS per IgG1 Fc molecule) stood at 2.
A word on the stoichiometry N: it is a count of units in the complex or per binding partner. Consider “IdeS^C94A (IdeS from Streptococcus pyogenes strain MGAS15252, Mac-2 variant, amino acids 41-339) (enzyme)”, for which, in the assay with IgG1 Fc^E382A (human), the stoichiometry N is 1 IdeS per Fc.

The values above are taken from paper PMC9759587.
